Measured values: patent US6583276 (TECHNION RESEARCH AND DEVELOPMENT, dated 2003)

B1: VEGF145 (recombinant human vascular endothelial growth factor form of 145 amino acids, exons 1-5, 6a and 8) (ligand)
chain: APMAEGGGQNHHEVVKFMDVYQRSYCHPIETLVDIFQEYPDEIEYIFKPSCVPLMRCGGCCNDEGLECVPTEESNITMQIMRIKPHQGQHIGEMSFLQHNKCECRPKKDRARQEKKSVRGKGKGQKRKRKKSRYKSWSVCDKPRR
notes: Produced in Sf9 insect cells with a recombinant baculovirus and partially purified on heparin-sepharose; also called r-VEGF
B2: VEGF121 (ligand, human, UniProt P15692-9 27-147, looked up)
chain: APMAEGGGQNHHEVVKFMDVYQRSYCHPIETLVDIFQEYPDEIEYIFKPSCVPLMRCGGCCNDEGLECVPTEESNITMQIMRIKPHQGQHIGEMSFLQHNKCECRPKKDRARQEKCDKPRR
notes: mature; VEGF121 isoform of VEGF-A

Target: T1, KDR/flk-1 VEGF receptor of HUVEC cells (human, UniProt P35968 20-1356)
T1 construct: whole, on cells; Endogenous receptor on confluent HUVEC cells
Assay: overview table, row 'Binding to Flk-1 and Flt-1 receptors'

T1 sequence (P35968 20-1356): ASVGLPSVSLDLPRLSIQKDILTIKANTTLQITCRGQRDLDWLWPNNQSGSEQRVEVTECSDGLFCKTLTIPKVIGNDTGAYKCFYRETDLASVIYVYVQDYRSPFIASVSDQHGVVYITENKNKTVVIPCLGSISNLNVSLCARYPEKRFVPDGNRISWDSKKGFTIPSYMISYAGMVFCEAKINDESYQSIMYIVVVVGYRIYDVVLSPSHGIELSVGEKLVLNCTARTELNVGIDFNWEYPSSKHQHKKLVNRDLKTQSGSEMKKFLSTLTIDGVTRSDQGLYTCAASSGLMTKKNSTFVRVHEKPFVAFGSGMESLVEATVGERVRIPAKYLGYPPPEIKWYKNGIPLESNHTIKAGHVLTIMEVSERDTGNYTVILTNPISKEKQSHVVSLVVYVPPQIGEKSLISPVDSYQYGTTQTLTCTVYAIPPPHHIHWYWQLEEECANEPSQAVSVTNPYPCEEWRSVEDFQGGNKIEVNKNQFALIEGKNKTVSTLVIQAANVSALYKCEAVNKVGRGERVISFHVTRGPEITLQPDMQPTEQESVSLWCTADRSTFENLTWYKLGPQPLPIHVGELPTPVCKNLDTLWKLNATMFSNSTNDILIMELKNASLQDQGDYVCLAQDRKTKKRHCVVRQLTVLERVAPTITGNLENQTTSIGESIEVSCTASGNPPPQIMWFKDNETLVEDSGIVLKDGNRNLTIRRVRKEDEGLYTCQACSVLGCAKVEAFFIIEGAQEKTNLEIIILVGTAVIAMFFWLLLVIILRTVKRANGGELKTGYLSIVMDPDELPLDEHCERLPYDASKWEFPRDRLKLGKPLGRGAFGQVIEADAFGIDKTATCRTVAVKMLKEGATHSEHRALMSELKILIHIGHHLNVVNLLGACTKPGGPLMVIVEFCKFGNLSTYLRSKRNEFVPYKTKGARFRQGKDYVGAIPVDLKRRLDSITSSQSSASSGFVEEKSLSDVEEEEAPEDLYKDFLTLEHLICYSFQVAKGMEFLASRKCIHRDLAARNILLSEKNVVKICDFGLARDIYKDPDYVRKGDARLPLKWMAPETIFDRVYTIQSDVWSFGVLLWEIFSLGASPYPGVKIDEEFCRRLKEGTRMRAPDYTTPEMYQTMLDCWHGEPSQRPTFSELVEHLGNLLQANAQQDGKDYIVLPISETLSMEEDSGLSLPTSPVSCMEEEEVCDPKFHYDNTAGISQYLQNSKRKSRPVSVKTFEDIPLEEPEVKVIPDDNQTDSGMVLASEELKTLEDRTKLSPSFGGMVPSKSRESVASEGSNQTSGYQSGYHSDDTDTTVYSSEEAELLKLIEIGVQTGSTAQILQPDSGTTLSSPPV

Binder | binding result
B1 | binds
B2 | binds
